{
  "source": "patent US20110236900",
  "about": "“NOVEL MUTS PROTEIN AND METHOD FOR DETERMING MUTATION USING THE SAME” (RIKEN, published 2011)",
  "molecules": {"B1": {"name": "T/G mismatched duplex (dsDNA)", "DNA 1": "CCGCTGAATTGCACCGAGCTTGATCCTCGATGATCCTAAGCGATCCATG", "DNA 2": "CATGGATCGCTTAGGATCATCGAGGATCGAGCTCGGTGCAATTCAGCGG"}, "B2": {"name": "C/G fully-matched duplex (dsDNA)", "DNA 1": "B1 DNA 1 with T21C", "DNA 2": "B1 DNA 2"}},
  "key": {"[1]": {"test_system": "T1, Aac MutS (Alicyclobacillus acidocaldarius subsp. acidocaldarius JCM5260)", "T1 sequence": "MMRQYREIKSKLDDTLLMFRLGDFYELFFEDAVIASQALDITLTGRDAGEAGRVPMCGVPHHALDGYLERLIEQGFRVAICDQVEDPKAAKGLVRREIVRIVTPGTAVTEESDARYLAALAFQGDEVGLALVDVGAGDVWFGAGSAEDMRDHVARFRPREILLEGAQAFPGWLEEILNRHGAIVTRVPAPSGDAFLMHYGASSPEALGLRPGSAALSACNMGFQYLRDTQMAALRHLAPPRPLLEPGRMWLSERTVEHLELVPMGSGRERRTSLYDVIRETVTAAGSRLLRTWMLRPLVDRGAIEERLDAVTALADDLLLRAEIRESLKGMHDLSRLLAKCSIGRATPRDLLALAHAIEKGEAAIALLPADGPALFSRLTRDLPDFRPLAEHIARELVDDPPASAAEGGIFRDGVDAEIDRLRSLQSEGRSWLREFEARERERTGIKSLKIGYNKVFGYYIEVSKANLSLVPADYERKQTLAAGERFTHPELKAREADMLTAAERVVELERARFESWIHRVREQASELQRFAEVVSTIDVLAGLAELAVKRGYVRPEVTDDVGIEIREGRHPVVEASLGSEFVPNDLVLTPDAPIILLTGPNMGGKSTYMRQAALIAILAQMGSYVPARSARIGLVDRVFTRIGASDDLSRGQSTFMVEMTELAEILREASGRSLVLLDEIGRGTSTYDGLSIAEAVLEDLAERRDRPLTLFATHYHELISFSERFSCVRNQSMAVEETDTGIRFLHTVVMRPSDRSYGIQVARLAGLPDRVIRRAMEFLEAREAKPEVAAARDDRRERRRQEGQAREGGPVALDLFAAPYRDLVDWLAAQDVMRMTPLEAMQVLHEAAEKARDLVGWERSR", "assay": "SPR", "details": "20 mM MgCl2"}, "Aac MutS [2]": {"target": "T2, Aac MutS (Alicyclobacillus acidocaldarius subsp. …)", "T2 chain": "T1 sequence", "assay": "SPR; Example 3-1; 1 mM ADP, 20 mM MgCl2, 50 mM KCl, pH 7.6", "details": "tags: none stated (pET17b, E. coli BL21-CodonPlus(DE3)RIL); chain copies: 2 stated; label: 5'-biotin on T-strand; single G-T mismatch", "procedure": "(§1) The chip was set in BIACORE3000, then the running buffer was passed through a channel of the chip at a flow rate of 10 μL/min, and an experiment was started as follows. First, 5 μmol/L C-strand DNA, 5 μmol/L T-strand DNA, and 5 μmol/L Del-strand DNA as regands were passed through the respective three flow cells contained in the chip at a flow rate of 10 μL/min, and they were bound to each other until the Resonance Unit reached about 150 RU (Resonance Unit). Subsequently, 5 μmol/L of the G-strand DNA was injected into each of the flow cells at a flow rate of 20 μL/min for 2 minutes, and thereafter, the flow cells were washed with the running buffer for 10 minutes. Thus, double-stranded DNAs between the C-strand DNA and the G-strand DNA, between T-strand DNA and the same, and between the Del-strand DNA and the same were formed. […] While injecting and washing, signal intensity was measured from the start of the injection of the Aac MutS. In Comparative Example 1, signal intensity was measured by the same treatment as that of Example 2 using Taq MutS derived from Thermus aquatieus as substitute for the Aac MutS.\n(§2) The signal intensity was measured in the same manner as in Example 2 except that 1 mmol/L ADP or ATP was added to the running buffer of Example 2. […] In Comparative Example 2, the signal intensity was measured using the Taq MutS in the same manner as in Example 3. […]"}, "Aac MutS [3]": {"target": "T2, Aac MutS", "assay": "SPR; Example 2; no nucleotide, 20 mM MgCl2, 50 mM KCl, pH 7.6", "details": "tags: none stated (pET17b, E. coli BL21-CodonPlus(DE3)RIL); chain copies: 2 stated; label: 5'-biotin on T-strand; single G-T mismatch", "procedure": "(§3) The chip was set in BIACORE3000, then the running buffer was passed through a channel of the chip at a flow rate of 10 μL/min, and an experiment was started as follows. First, 5 μmol/L C-strand DNA, 5 μmol/L T-strand DNA, and 5 μmol/L Del-strand DNA as regands were passed through the respective three flow cells contained in the chip at a flow rate of 10 μL/min, and they were bound to each other until the Resonance Unit reached about 150 RU (Resonance Unit). Subsequently, 5 μmol/L of the G-strand DNA was injected into each of the flow cells at a flow rate of 20 μL/min for 2 minutes, and thereafter, the flow cells were washed with the running buffer for 10 minutes. Thus, double-stranded DNAs between the C-strand DNA and the G-strand DNA, between T-strand DNA and the same, and between the Del-strand DNA and the same were formed. Then, an Aac MutS solution with the predetermined concentration (0.1, 0.2, 0.5, 1, 2, or 4 μmol/L) was injected into each of the flow cells at a flow rate of 20 μL/min for 10 minutes, and thereafter, the flow cells were washed with the running buffer for 20 minutes. While injecting and washing, signal intensity was measured from the start of the injection of the Aac MutS. In Comparative Example 1, signal intensity was measured by the same treatment as that of Example 2 using Taq MutS derived from Thermus aquatieus as substitute for the Aac MutS."}, "Taq MutS [4]": {"target": "T3, Taq MutS (Thermus aquaticus, UniProt Q56215 Q56215:1-811)", "T3 sequence": "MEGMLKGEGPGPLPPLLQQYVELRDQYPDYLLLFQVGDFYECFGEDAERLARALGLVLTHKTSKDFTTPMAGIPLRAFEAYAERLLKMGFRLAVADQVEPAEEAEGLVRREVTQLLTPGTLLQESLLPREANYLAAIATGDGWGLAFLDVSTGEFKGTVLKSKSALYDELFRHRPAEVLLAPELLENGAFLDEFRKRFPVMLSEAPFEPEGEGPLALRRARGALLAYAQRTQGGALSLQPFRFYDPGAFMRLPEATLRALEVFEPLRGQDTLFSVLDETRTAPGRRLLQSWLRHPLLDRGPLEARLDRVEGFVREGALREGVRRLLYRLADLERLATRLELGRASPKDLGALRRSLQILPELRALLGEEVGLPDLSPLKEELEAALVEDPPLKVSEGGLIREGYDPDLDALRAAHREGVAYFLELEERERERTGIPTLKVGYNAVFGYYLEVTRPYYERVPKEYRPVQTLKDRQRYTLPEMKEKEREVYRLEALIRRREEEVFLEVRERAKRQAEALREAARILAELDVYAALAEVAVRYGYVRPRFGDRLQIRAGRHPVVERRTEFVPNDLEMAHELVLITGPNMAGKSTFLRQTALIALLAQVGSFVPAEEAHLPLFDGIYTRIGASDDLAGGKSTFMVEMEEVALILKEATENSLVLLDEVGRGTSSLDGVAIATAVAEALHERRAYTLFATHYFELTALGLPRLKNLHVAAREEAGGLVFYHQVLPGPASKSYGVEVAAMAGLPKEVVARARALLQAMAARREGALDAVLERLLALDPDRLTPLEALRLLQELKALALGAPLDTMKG", "assay": "SPR; Comp. Ex. 1; no nucleotide, 20 mM MgCl2, 50 mM KCl, pH 7.6", "details": "label: 5'-biotin on T-strand; single G-T mismatch", "procedure": "as §3"}, "Taq MutS [5]": {"target": "T3, Taq MutS", "assay": "SPR; Comp. Ex. 2-1; 1 mM ADP, 20 mM MgCl2", "procedure": "as §1, §2"}, "Taq MutS [6]": {"target": "T3, Taq MutS", "assay": "SPR; Comp. Ex. 1; no nucleotide, 20 mM MgCl2", "details": "label: 5'-biotin on C-strand", "procedure": "as §3"}},
  "note": "Positions count from the first letter of the chain named.",
  "data": [
    {"molecule": "CCGCTGAATTGCACCGAGCTCGATCCTCGATGATCCTAAGCGATCCATG (double strand) [C/G fully-matched duplex]", "values": [
      {"measurement": "Kd", "setting": "[1]; Example 2, no nucleotide, text says binding not found", "value": 65500, "unit": "nM"},
      {"measurement": "Kd", "setting": "[1]; Example 3-1, 1 mM ADP, binding described as sufficiently suppressed", "value": 19800, "unit": "nM"}
    ]},
    {"molecule": "B1", "values": [
      {"measurement": "Kd", "setting": "Aac MutS [2]", "value": 330, "unit": "nM"},
      {"measurement": "Kd", "setting": "Aac MutS [3]", "value": 1450, "unit": "nM"},
      {"measurement": "Kd", "setting": "Taq MutS [4]", "value": 622, "unit": "nM"},
      {"measurement": "Kd", "setting": "Taq MutS [5]; label: 5'-biotin on T-strand, single G-T mismatch", "value": 2260, "unit": "nM"}
    ]},
    {"molecule": "B2", "values": [
      {"measurement": "Kd", "setting": "Taq MutS [6]", "value": 2270, "unit": "nM"},
      {"measurement": "Kd", "setting": "Taq MutS [5]; label: 5'-biotin on C-strand", "value": 6580, "unit": "nM"}
    ]}
  ]
}
